{"source": "patent US20040009898A1", "about": "(UNIVERSITY OF IOWA RESEARCH FOUNDATION, published 2004)", "molecular_target": "urokinase plasminogen activator receptor (uPAR) on differentiated human airway epithelia (human, UniProt Q03405 23-305, GPI-linked)", "sequence (Q03405 23-305)": "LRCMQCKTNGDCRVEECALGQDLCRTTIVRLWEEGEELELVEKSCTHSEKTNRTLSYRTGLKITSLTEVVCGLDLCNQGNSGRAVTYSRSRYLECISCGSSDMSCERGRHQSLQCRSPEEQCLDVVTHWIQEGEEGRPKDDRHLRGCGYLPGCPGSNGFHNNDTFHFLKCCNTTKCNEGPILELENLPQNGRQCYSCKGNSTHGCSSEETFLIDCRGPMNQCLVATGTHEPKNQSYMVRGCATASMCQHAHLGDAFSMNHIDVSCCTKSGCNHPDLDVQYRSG", "experiment": "cell-based or functional assay", "note": "No end group written: not given here.", "data": [{"binder": "CLNGGTC (other, not fully specified; also: coupled through bifunctional PEG to adenovirus capsid, terminal Cys with free sulfhydryl used for coupling)", "note": "[u7-peptide coupled through PEG to the capsid of adenovirus Ad2/βgal-4]", "values": [{"measurement": "gene transfer (β-galactosidase) to human airway epithelia", "value": 10, "unit": "fold"}]}]}
